From US12310324B2, “Compositions and methods for minimizing nornicotine synthesis in tobacco” (North Carolina State University, priority 2010, dated 2025) come the findings set out here.

In data set [1] the test system is CYP82E4 nicotine demethylase.
Data set [2] deals with CYP82E10 nicotine demethylase. Nature of the data set: Nicotine demethylase assay, yeast microsomal membranes with [14C]-nicotine, CYP82E10 and variants. Type of data set: biochemical, tobacco. More on the design: Activity of Mutant Enzyme: concentration or dose not given beside the values. The settings on record: for Activity of Mutant Enzyme: relative to the wild type enzyme when expressed in yeast; for nicotine demethylase (enzyme) activity, result in words: [14C]-nicotine. From the text: To determine whether CYP82E10 functions as a nicotine demethylase gene, its cDNA was cloned into the yeast expression vector pYeDP60 and transformed into yeast strain W(R). Strain W(R) is a yeast cell line that was engineered to overexpress the yeast NADPH-dependent P450 reductase, an enzyme that serves as the direct electron donor to P450s; this system greatly enhances the detection of foreign P450 enzyme activities that are expressed in yeast (Pompon et al., 1995). Nicotine demethylase assays were conducted by incubating yeast microsomal membrane preparations with [^14C]-nicotine, and resolving the products by thin layer chromatography as described in Siminszky et al. (2005).
The nucleotide and amino acid residues mutated in these plants are also highlighted in FIG. 1. Although no truncation mutations were observed among these individuals, in several cases, mutations were identified that altered an amino acid residue within a highly conserved region of the enzyme. To determine the effects of a particular mutation on CYP82E10 enzyme activity, site-directed mutagenesis was used to introduce the specific mutations corresponding to seven of the nine mutations shown in Table 2 into the CYP82E10 cDNA within the pYeDP60 yeast expression vector. Microsomal preparations from yeast strains expressing each of the seven CYP82E10 variants were assayed in vitro for nicotine demethylase activity using both non-saturating (2.45 μM) and saturating (50 μM) concentrations of [^14C]-nicotine.

B1: CYP82E4 W329Stop: CYP82E4 variant with stop codon for tryptophan at position 329 (protein, listed as Nicotiana tabacum)
chain: MLSPIEAIVGLVTFTFLFFFLWTKKSQKPSKPLPPKIPGGWPVIGHLFHFNDDGDDRPLARKLGDLADKYGPVFTFRLGLPLVLVVSSYEAVKDCFSTNDAIFSNRPAFLYGDYLGYNNAMLFLANYGPYWRKNRKLVIQEVLSASRLEKFKHVRFARIQASIKNLYTRIDGNSSTINLTDWLEELNFGLIVKMIAGKNYESGKGDEQVERFKKAFKDFMILSMEFVLWDAFPIPLFKWVDFQGHVKAMKRTFKDIDSVFQNWLEEHINKREKMEVNAEGNEQDFIDVVLSKMSNEYLGEGYSRDTVIKATVFSLVLDAADTVALHIN
modifications: CYP82E4 W329Stop Variant
Take B1: the “inhibition of nicotine demethylase activity (knocked out)” value in data set [1] stood at 100%.

B2: CYP82E4 K364N: CYP82E4 variant with asparagine for lysine at position 364 (protein, listed as Nicotiana tabacum)
chain: MLSPIEAIVGLVTFTFLFFFLWTKKSQKPSKPLPPKIPGGWPVIGHLFHFNDDGDDRPLARKLGDLADKYGPVFTFRLGLPLVLVVSSYEAVKDCFSTNDAIFSNRPAFLYGDYLGYNNAMLFLANYGPYWRKNRKLVIQEVLSASRLEKFKHVRFARIQASIKNLYTRIDGNSSTINLTDWLEELNFGLIVKMIAGKNYESGKGDEQVERFKKAFKDFMILSMEFVLWDAFPIPLFKWVDFQGHVKAMKRTFKDIDSVFQNWLEEHINKREKMEVNAEGNEQDFIDVVLSKMSNEYLGEGYSRDTVIKATVFSLVLDAADTVALHINWGMALLINNQKALTKAQEEIDTKVGKDRWVEESDINDLVYLQAIVKEVLRLYPPGPLLVPHENVEDCVVSGYHIPKGTRLFANVMKLQRDPKLWSDPDTFDPERFIATDIDFRGQYYKYIPFGSGRRSCPGMTYALQVEHLTMAHLIQGFNYRTPNDEPLDMKEGAGITIRKVNPVELIIAPRLAPELY
modifications: CYP82E4 K364N Variant
For the molecule B2, the “inhibition of nicotine demethylase activity (knocked out)” value in data set [1] is 100%.

B3: Plant 693: CYP82E10 mutant enzyme R417H (mutation G1250A) from plant 693 (protein, listed as Nicotiana tabacum)
chain: MVSPVEAIVGLVTLTLLFYFIRTKKSQKPSKPLPPKIPGGWPVIGHLFYFDDDSDDRPLARKLGDLADKYGPVFTFRLGLPLVLVVSSYEAIKDCFSTNDAIFSNRPAFLYGEYLGYNNAMLFLTKYGPYWRKNRKLVIQEVLCASRLEKLKHVRFGEIQTSIKNLYTRIDGNSSTINLTDWLEELNFGLIVKMIAGKNYESGKGDEQVERFRKAFKDFIILSMEFVLWDAFPIPLFKWVDFQGHVKAMKRTFKDIDSVFQNWLEEHVKKKEKMEVNAEGNEQDFIDVVLSKMSNEYLDEGYSRDTVIKATVFSLVLDAADTVALHMNWGMALLINNQHALKKAQEEIDKKVGKDRWVEESDIKDLVYLQTIVKEVLRLYPPGPLLVPHENVEDCVVSGYHIPKGTRLFANVMKLQHDPKLWSNPDKFDPERFFAADIDFRGQHYEFIPFGSGRRSCPGMTYAMQVEHLTIAHLIQGFNYKTPNDEPLDMKEGAGLTIRKVNPIEVVITPRLTPELY
modifications: CYP82E10 R417H Variant
On to B3, for which the “Activity of Mutant Enzyme” value in data set [2] is 100%. Further, the “nicotine demethylase (enzyme) activity, result in words” value (“nicotine demethylase (enzyme) activity” below) in data set [2] (yeast microsomes) is given as “did not alter enzyme activity”.

B4: Plant 1035: CYP82E10 mutant enzyme A344T (mutation G1030A) from plant 1035 (protein, listed as Nicotiana tabacum)
chain: MVSPVEAIVGLVTLTLLFYFIRTKKSQKPSKPLPPKIPGGWPVIGHLFYFDDDSDDRPLARKLGDLADKYGPVFTFRLGLPLVLVVSSYEAIKDCFSTNDAIFSNRPAFLYGEYLGYNNAMLFLTKYGPYWRKNRKLVIQEVLCASRLEKLKHVRFGEIQTSIKNLYTRIDGNSSTINLTDWLEELNFGLIVKMIAGKNYESGKGDEQVERFRKAFKDFIILSMEFVLWDAFPIPLFKWVDFQGHVKAMKRTFKDIDSVFQNWLEEHVKKKEKMEVNAEGNEQDFIDVVLSKMSNEYLDEGYSRDTVIKATVFSLVLDAADTVALHMNWGMALLINNQHALKKTQEEIDKKVGKDRWVEESDIKDLVYLQTIVKEVLRLYPPGPLLVPHENVEDCVVSGYHIPKGTRLFANVMKLQRDPKLWSNPDKFDPERFFAADIDFRGQHYEFIPFGSGRRSCPGMTYAMQVEHLTIAHLIQGFNYKTPNDEPLDMKEGAGLTIRKVNPIEVVITPRLTPELY
modifications: CYP82E10 A344T Variant
As to B4, the “Activity of Mutant Enzyme” value in data set [2] amounted to 100%. Also, the “nicotine demethylase (enzyme) activity” value in data set [2] (yeast microsomes) was “did not alter enzyme activity”.

B5: Plant 2476: CYP82E10 mutant enzyme G79S (mutation G235A) from EMS treated DH98-325-6 plant 2476 (protein, listed as Nicotiana tabacum)
chain: MVSPVEAIVGLVTLTLLFYFIRTKKSQKPSKPLPPKIPGGWPVIGHLFYFDDDSDDRPLARKLGDLADKYGPVFTFRLSLPLVLVVSSYEAIKDCFSTNDAIFSNRPAFLYGEYLGYNNAMLFLTKYGPYWRKNRKLVIQEVLCASRLEKLKHVRFGEIQTSIKNLYTRIDGNSSTINLTDWLEELNFGLIVKMIAGKNYESGKGDEQVERFRKAFKDFIILSMEFVLWDAFPIPLFKWVDFQGHVKAMKRTFKDIDSVFQNWLEEHVKKKEKMEVNAEGNEQDFIDVVLSKMSNEYLDEGYSRDTVIKATVFSLVLDAADTVALHMNWGMALLINNQHALKKAQEEIDKKVGKDRWVEESDIKDLVYLQTIVKEVLRLYPPGPLLVPHENVEDCVVSGYHIPKGTRLFANVMKLQRDPKLWSNPDKFDPERFFAADIDFRGQHYEFIPFGSGRRSCPGMTYAMQVEHLTIAHLIQGFNYKTPNDEPLDMKEGAGLTIRKVNPIEVVITPRLTPELY
modifications: CYP82E10 G79S Variant
On to B5, for which, in data set [2], the “loss of nicotine demethylase activity from mutation (knocked out)” value came out at 100% and the “Activity of Mutant Enzyme” value was “Not detected”. In addition, in data set [2] (yeast microsomes), the “nicotine demethylase (enzyme) activity” value was “complete enzyme inactivation”.

B6: Plant 1442: CYP82E10 mutant enzyme P419S (mutation C1255T) from plant 1442 (protein, listed as Nicotiana tabacum)
chain: MVSPVEAIVGLVTLTLLFYFIRTKKSQKPSKPLPPKIPGGWPVIGHLFYFDDDSDDRPLARKLGDLADKYGPVFTFRLGLPLVLVVSSYEAIKDCFSTNDAIFSNRPAFLYGEYLGYNNAMLFLTKYGPYWRKNRKLVIQEVLCASRLEKLKHVRFGEIQTSIKNLYTRIDGNSSTINLTDWLEELNFGLIVKMIAGKNYESGKGDEQVERFRKAFKDFIILSMEFVLWDAFPIPLFKWVDFQGHVKAMKRTFKDIDSVFQNWLEEHVKKKEKMEVNAEGNEQDFIDVVLSKMSNEYLDEGYSRDTVIKATVFSLVLDAADTVALHMNWGMALLINNQHALKKAQEEIDKKVGKDRWVEESDIKDLVYLQTIVKEVLRLYPPGPLLVPHENVEDCVVSGYHIPKGTRLFANVMKLQRDSKLWSNPDKFDPERFFAADIDFRGQHYEFIPFGSGRRSCPGMTYAMQVEHLTIAHLIQGFNYKTPNDEPLDMKEGAGLTIRKVNPIEVVITPRLTPELY
modifications: CYP82E10 P419S Variant
As for B6, in data set [2], the “nicotine demethylase activity relative to the wild-type CYP82E10 polypeptide” value is reported as “about 25%” and the “Activity of Mutant Enzyme” value came out at 25%. Further, the “reduction in activity compared to the wild type CYP82E10 enzyme” value in data set [2] (yeast microsomes, 2.45 μM and 50 μM [14C]-nicotine) is on record as 75%.

B7: Plant 817: CYP82E10 mutant enzyme A410T (mutation G1228A) from plant 817 (protein, listed as Nicotiana tabacum)
chain: MVSPVEAIVGLVTLTLLFYFIRTKKSQKPSKPLPPKIPGGWPVIGHLFYFDDDSDDRPLARKLGDLADKYGPVFTFRLGLPLVLVVSSYEAIKDCFSTNDAIFSNRPAFLYGEYLGYNNAMLFLTKYGPYWRKNRKLVIQEVLCASRLEKLKHVRFGEIQTSIKNLYTRIDGNSSTINLTDWLEELNFGLIVKMIAGKNYESGKGDEQVERFRKAFKDFIILSMEFVLWDAFPIPLFKWVDFQGHVKAMKRTFKDIDSVFQNWLEEHVKKKEKMEVNAEGNEQDFIDVVLSKMSNEYLDEGYSRDTVIKATVFSLVLDAADTVALHMNWGMALLINNQHALKKAQEEIDKKVGKDRWVEESDIKDLVYLQTIVKEVLRLYPPGPLLVPHENVEDCVVSGYHIPKGTRLFTNVMKLQRDPKLWSNPDKFDPERFFAADIDFRGQHYEFIPFGSGRRSCPGMTYAMQVEHLTIAHLIQGFNYKTPNDEPLDMKEGAGLTIRKVNPIEVVITPRLTPELY
modifications: CYP82E10 A410T
As to B7, the “Activity of Mutant Enzyme” value in data set [2] is recorded as 100%. For the same molecule, in data set [2] (yeast microsomes), the “nicotine demethylase (enzyme) activity” value is recorded as “did not alter enzyme activity”.

B8: Plant 1512: CYP82E10 mutant enzyme P107S (mutation C319T) from EMS treated DH98-325-6 plant 1512 (protein, listed as Nicotiana tabacum)
chain: MVSPVEAIVGLVTLTLLFYFIRTKKSQKPSKPLPPKIPGGWPVIGHLFYFDDDSDDRPLARKLGDLADKYGPVFTFRLGLPLVLVVSSYEAIKDCFSTNDAIFSNRSAFLYGEYLGYNNAMLFLTKYGPYWRKNRKLVIQEVLCASRLEKLKHVRFGEIQTSIKNLYTRIDGNSSTINLTDWLEELNFGLIVKMIAGKNYESGKGDEQVERFRKAFKDFIILSMEFVLWDAFPIPLFKWVDFQGHVKAMKRTFKDIDSVFQNWLEEHVKKKEKMEVNAEGNEQDFIDVVLSKMSNEYLDEGYSRDTVIKATVFSLVLDAADTVALHMNWGMALLINNQHALKKAQEEIDKKVGKDRWVEESDIKDLVYLQTIVKEVLRLYPPGPLLVPHENVEDCVVSGYHIPKGTRLFANVMKLQRDPKLWSNPDKFDPERFFAADIDFRGQHYEFIPFGSGRRSCPGMTYAMQVEHLTIAHLIQGFNYKTPNDEPLDMKEGAGLTIRKVNPIEVVITPRLTPELY
modifications: CYP82E10 P107S Variant
As to B8, in data set [2], the “loss of nicotine demethylase activity from mutation (knocked out)” value turned out to be 100% and the “Activity of Mutant Enzyme” value is reported as “Not detected”. In data set [2] (yeast microsomes), the “nicotine demethylase (enzyme) activity” value is given as “complete enzyme inactivation”.
